Target: native Ocr protein (bacteriophage T7 gene 0.3 product) as produced from pMCSG7 (bacteriophage T7)
Test: size exclusion chromatography, Superdex 75; predicted monomer 16.6 kDa, dimer 33.3 kDa

In the case of “native Ocr protein (bacteriophage T7 gene 0.3 product) as produced from pMCSG7”, the calculated molecular weight on size exclusion column is reported as 35 kDa.
